In the test the target is MUC2C-N (human MUC2 4256-4803, C4786A; PTS3, VWCN, D4 and VWC1) (human). Nature of the test: cross-linking.

For orientation: stoichiometry N means the number of molecules, sites or subunits per partner or assembly.

“MUC2C-N (human MUC2 4256-4803, C4786A; PTS3, VWCN, D4 and VWC1) (domain or fragment)” yielded a stoichiometry N of 2.

For the origin of these results see doi:10.1101/2025.03.16.643548.
